According to PMC8060482, “Identification of an Invertase With High Specific Activity for Raffinose Hydrolysis and Its Application in Soymilk Treatment” (Frontiers in Microbiology, 2021):

Columns and labels:
Test in all cases: released glucose by glucose oxidase method; Michaelis-Menten fit
Format in all cases: biochemical, Microbacterium trichothecenolyticum
[1] = substrate: OC[C@H]1O[C@@](CO)(O[C@H]2O[C@H](CO)[C@@H](O)[C@H](O)[C@H]2O)[C@@H](O)[C@@H]1O; details: 50 mM citrate-phosphate pH 6.5, 35 °C, 5 min, enzyme printed as rInvDz13
[2] = substrate: OC[C@H]1O[C@H](OC[C@H]2O[C@H](O[C@]3(CO)O[C@H](CO)[C@@H](O)[C@@H]3O)[C@H](O)[C@@H](O)[C@@H]2O)[C@H](O)[C@@H](O)[C@H]1O; details: 50 mM citrate-phosphate pH 6.5, 35 °C, 5 min
[3] = substrate: OC[C@H]1O[C@H](OC[C@H]2O[C@H](OC[C@H]3O[C@H](O[C@]4(CO)O[C@H](CO)[C@@H](O)[C@@H]4O)[C@H](O)[C@@H](O)[C@@H]3O)[C@H](O)[C@@H](O)[C@H]2O)[C@H](O)[C@@H](O)[C@H]1O; details: 50 mM citrate-phosphate pH 6.5, 35 °C, 5 min

B1: InvDz13 (Microbacterium trichothecenolyticum) (protein)
chain: APVAPAAPELQDGPQPTAHTQQAYAPEDDFTAKWTRADARQLKRLSDPTAGSKQNSMPTELTMPAVAQDFPDMSNEQVWVWDSWPLTDENANQYSVNGQEIIFSLVADRNLVFDERHVFAKIGYFYRPAGVPADERPENGGWTYGGLVFDEGVTGKIFPDQSYSHQTQWSGSARISKGGQIKLFFTDVAFYRNEDGSNRKPYDPRIALSVGKVHANKNGVKLTGFDKVTDLLQADGTYYQTGAQNEFFNFRDPFTFEDPAHPGETYMVFEGNSAMPRETATCNEEDLGYREGDPFAESVEQVNASGATYQIGNVGLAKAKNKDLTEWEFLPPLLSANCVTDQTERPQIYMKDGKYYLFTISHRGTFANGIDGPEGVYGFVGDGIRSDYQPMNSGSGLALGNPTNLNFAGGQPFAPDFNQPIGHFQAYSHYVMPGGLVQSFIDTVGTEGDFRRGGTLAPTVKIDIDGASSAVDYAYGDGGLGGYADIPANINVNPGGKVTPLP
notes: natively purified from culture supernatant of strain Dz13 (DEAE-Sepharose, Sephacryl S100); precursor 537 aa, predicted signal peptide 1-35 (secreted enzyme); kinetics of sucrose printed once as rInvDz13, but no recombinant expression described
- Km [1]: 4.5 ± 0.2 mM
- kcat [1]: 504 ± 0.1 s^–1
- Km [2]: 14.2 ± 0.7 mM
- kcat [2]: 3944 ± 15.3 s^–1
- Km [3]: 65.2 ± 3.07 mM
- kcat [3]: 2368.3 ± 7.1 s^–1
